Experiment: soluble fraction after stress (log2 fold change); higher = more stays soluble; pooled small domains, quantitative proteomics
Conditions: stress: 50 degC
Summary of the method: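 After stress at 50°C, the amount of each protein still soluble was measured. This was done on pooled custom libraries of small protein domains, using high-throughput quantitative proteomics. The figure given is a base-two log fold change and stands for aggregation propensity, with higher values meaning more protein stays in solution.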
For “HMGKPSSEELEALGRRTLEENVDVVEEILGGRDPKGKKIKYLEGLMMRALRGQETPEAVRRTLEELIFK”, the “soluble fraction (log2)” value was 0.0847. With “HMGGYVVVGDKDGFWSVVSTPVSKAKAEELLKDTTFPKGEKGKIVSVAEAMSHKKVIGKEYLESGGT” the “soluble fraction (log2)” value was 0.117. In the case of “HMLDSGNPILPYKLSLLANVDIRTVRNAISAGELVAFKSEFDGEVYVENGSARRWLHGRRGFKPTLK”, the “soluble fraction (log2)” value is reported as -0.84. In the case of “HMSAEDQRRASQEAAYRFMQVMAGNEAGFEDAARALFAGDNHRFEVLIQSWPDDVRDHVSLLSVDAFA”, the “soluble fraction (log2)” value is reported as -0.615. In the case of “HMSGKMTVPNVVGKTETEAKSALSAKGFTNVRTETVDSTEAAGTVVKQSLDADSVQDPKTEIVLSVSNG”, the “soluble fraction (log2)” value is reported as 0.608. In the case of “HMEIIMIVITKPSITDERIAEIVAVIERNGGVQAHVSKGTDRTVIGIIGKAEPTLAEHLRQMKGVENVIKI”, the “soluble fraction (log2)” value is reported as 0.0636. For “HMRREIRLTVTEEIVLMKFLLTQIPYKNRDNFKTLLNDRQIRVNGSVVTWYNHPLKPGQEVTIGWFKM”, the “soluble fraction (log2)” value was -0.168. For “HMKTTKRERARAKLIQLLENEDRPAKEIYAGLGDIGVGSRTVEKVKKELQVTTYRSGGSWYWSLPKP”, the “soluble fraction (log2)” value was -0.169. With “HMARAGKLAQDMAVWTKETMLNTERNFISLRHFKRELLRRTLAPGESEQTVRAMEEAGYIQVKDGLVFPIK” the “soluble fraction (log2)” value was -1.74. With “HMVKKYEKVKEYLLERILDGTYVPDLPIPPERELASLLDVNRMTVRRAVEELMYDGYLIRKKGSGTYLTR” the “soluble fraction (log2)” value was -1.57. With “HMFTIGENIRDLRLERAITQEQLAEQLNVSAPAVSKWERGEAYPDITLVPKLAEILGVSTDKLFGVD” the “soluble fraction (log2)” value was -0.0643. In the case of “HMADYSGYLGKKGKVIAPLRPAGTALIDGERVDVVSFGDYIDKDSEIEVVKIEGSKLLVKKY”, the “soluble fraction (log2)” value is reported as 0.141. In the case of “HMTSEPFYNPRRPQPYWTSETDRHTTYADAVRALAREFSETPEWVESNMGETNDLQEIRRNLSRVKSG”, the “soluble fraction (log2)” value is reported as 0.144. In the case of “HMKKYLIIDAANEKIIFKIIDNNKTYTNDYENSRKNFDRFAVLLFNFLNKNMISFDTIDKAL”, the “soluble fraction (log2)” value is reported as -0.0864. With “HMNDVEAIDDALKDLHKVSPDLAALVEMKFFGGMTEPEISEILGVSERTVRREWEKARAALLVLLE” the “soluble fraction (log2)” value was -1.41. For “HMAVELPLETTLDIVRKYARNQEVDRRAERVEAVSAEALQTLAPRGTKLASEIVEQAKTQVLEELA”, the “soluble fraction (log2)” value was 0.177. For “HMRSVLSDEIYLLIRKMIFNYEILPGAKVNIDALAKKLDVSQTPVREALSRLESDGLIVKEPLKGFRATD”, the “soluble fraction (log2)” value was -0.875. In the case of “HMFEFFKGIYSISLLKKDGIFFVTFKDENKEAVKHIFPEKPTALELGIKVMEMFEYKERYDGII”, the “soluble fraction (log2)” value is reported as -0.227. For “HMSSETTVPAVVGIKEDKARQLASEQGLRLRVKSREESADVEEGIIISQDPNSNTKVKKGDEIEVVVS”, the “soluble fraction (log2)” value was 0.254. With “HMSDIATLVPGPTDAELAASALRGLDAALDADTPVRLSLGEPGGEVEVPRSVLAALARVLDSFAHGEGVTL” the “soluble fraction (log2)” value was -0.136. For “HMRAPIGFRISNRRKSLKISQVALARLVGISPSYLNLIENNKRDVGGALLQRVALHLNIDIDDL”, the “soluble fraction (log2)” value was -3.02. In the case of “HMGNVRSWKGWTSAGGTRVQMRQGDSINSMARRYGVPIQAIVAVNGIDDPAKVQPGQSVIIPTYVY”, the “soluble fraction (log2)” value is reported as 0.0448. In the case of “HMGLYPYSGTPADNQEANERRIFDIYSTHLERIFSDFSGATLRTKRLVLRLMQELVHSDPVRMAGILDEL”, the “soluble fraction (log2)” value is reported as 0.00204. With “HMAGTGKVNTGVANVRSGPGTNYEISGKIYADTEVSILETSNGWYKIKFGNLTGWMSGTVLDIK” the “soluble fraction (log2)” value was -0.138. In the case of “HMVSLLDWAYKQVRRMLFSGDLPQGQKIVVAQLANQLSISPTPVKEALNRLAVEGLLEAVPRRGFQVR”, the “soluble fraction (log2)” value is reported as -0.229. For “HMENFSTLFSRLKEERGLSNKQISSFTGAPIKEVKKWESGMGIPTEKRIVAALEGILGSEISKAI”, the “soluble fraction (log2)” value was -0.0124. In the case of “HMPEVYSFEVNEGAAGKRLDIFLSGEIEGLTRSFIQKLISEGMATVNQEPPRASYRVKTRDLVELQIPDPE”, the “soluble fraction (log2)” value is reported as -0.488. For “HMITDSSEIEAMVDALVKENPGQAEQYKDGNMKVAGWFIGQIMKVSKGKANPQLVGDLLKKKLG”, the “soluble fraction (log2)” value was 0.353. With “HMSMTVHGALRLLQLPTIADRPYTLKEIREAYREQAQNHHPDAGGSADAMRRLNEAYQFLKERYRQA” the “soluble fraction (log2)” value was -0.16. With “HMKETERKILQAVLGLPLKYRDVIHLFYYEEMSVKEIAEVLHRQESTVTSQLTRARGILKKNL” the “soluble fraction (log2)” value was 0.09. For “HMFTSVDVAPDLRTAKVFYSVLGRKKSDKEINIAINQKRKAFKKFMGPELHLKNIPDLHFYYD”, the “soluble fraction (log2)” value was -0.232. With “HMYNNDEIEKIQTMYNAIYQLNDIEKALIMLFLEDKSYKEIAEIMGISEGNARIKMMRTKDKLKNLISKN” the “soluble fraction (log2)” value was -0.369. In the case of “HMYDASELNKALEEAKKLDLNNYTEESSEALKNAISKAEEALLSKDKETINSALEELNKAMDSL”, the “soluble fraction (log2)” value is reported as 0.112. In the case of “HMERTQSIEAAREQLGEVTKDNVFETETLGALAILKENEPGEYAKIKADLKGKINMNDLERAVKKAAADQR”, the “soluble fraction (log2)” value is reported as at least 0.62. With “HMSKTQYTFKEVGSQFQLFAPSTKHTIMISADHPKYGWLTNQDQGRVINVYDTGKMTSSQDYYGLYKEVT” the “soluble fraction (log2)” value was -0.155. For “HMSHLTKKQEEVLLFIRDYYEEEGRSPSYSDIQHHFGLKSKSSVQDYIGYLKKAGFLQKSVGSRAIELV”, the “soluble fraction (log2)” value was -2.05. In the case of “HMIMGTITKRTNPSGAIVYRAQIRIKKAGYPDFSESRTFSKKAMAVEWLKLREAELEMHPELLFR”, the “soluble fraction (log2)” value is reported as -1.34. With “HMTFNEPSPKEIMDYSLSRGYKVDADAFIDFYRGKAKAYGKEGLWLDGRGRLVKDWRAKLRVVWFKDENKL” the “soluble fraction (log2)” value was -1.22. With “HMQEDKSKYLFQRGTAITVLRPAGIVRIGKERVDAVSNGSYIDRGVAVRVIEVEGTRVVVEPVPE” the “soluble fraction (log2)” value was 0.13. With “HMNGTEAIRRYIDQFASKHATTPRMLKLNERKQLIQELKNNGLLEIKKAVETVAQHLGISRASAYLYVKE” the “soluble fraction (log2)” value was -0.303. With “HMQDFEEILKNAKIEDFKHTQTGEDLKVLKIEDKIEDFKGFNAYLVKNQIAYYSKFARGFVVKNIEKLQGV” the “soluble fraction (log2)” value was 0.0429. In the case of “HMEKSLSAQVYEKIKAGIISLKYPPGSVLKERELSESLGVSRTPVREAIQRLSQESWLVPGEGKRMQVRP”, the “soluble fraction (log2)” value is reported as 0.134. In the case of “HMIYYTEEELVKRYIDFSNYLGKKEGASDVDFKKYAVEFGIPSRDHYNRKFITLFNLKIKAGYKPIRH”, the “soluble fraction (log2)” value is reported as -0.763. With “HMHMKTIEWDSLVLIMYKDMKYLKRINEGQSFHGKGGMLNYADLIGKTYGIRFGQYEIFEPSLEDIVMYG” the “soluble fraction (log2)” value was -0.126. With “HMDPHEEELLRQLIRGDIAGYEVLFHKYYPTFFAFIKGMTKETVVAEDITQNIFMKVWLNRERLDAA” the “soluble fraction (log2)” value was -0.0635. For “HMTIQNSILDEIPNIGASRKRAILEAFGSVHRLRKASPEMISAKVEGIGPEMAQAIHDYLVKHPAT”, the “soluble fraction (log2)” value was 0.19. With “HMIQHFARKRRQLELAVQRLSGRMAETNGQVTADMQRLIQQVKALVAELSHVFSRAYLRRVLGGVALVIGS” the “soluble fraction (log2)” value was -0.104. For “HMLILDTDGRYVIKRGDSLSEILEKIANGSNINLNLLKRAFVTANPKAFKRANPNWMYANAR”, the “soluble fraction (log2)” value was -0.113. In the case of “HMDDILAYEIEDKEDLENLSLGKSIGINLNKLIKPTLNSFDNSLLFLSKKGNIISYGKLNGDLFKPKKVL”, the “soluble fraction (log2)” value is reported as 0.0598. With “HMEQINVTIQTEKGRIDKVLSEHLPNHSRSQIQQWLKEKHVTVNGETVRANYKVTAGDEIVVTIPEPEV” the “soluble fraction (log2)” value was 0.206. With “HMYLSNPTYRGDSLVDALTQIGVDASFASRRDLARKNGIENYTGSAKQNLELLQLLREGRLR” the “soluble fraction (log2)” value was 0.374. For “HMKIPIIYQPLKNAKRIKIYIPYELKELRTIFKKINTTFWHPNQKLWSIIYTQENVALIKNLFGKNYKIVN”, the “soluble fraction (log2)” value was -0.547. For “HMGSKKITIYVSGEVKNPGIVTLNSDQRLASAVEKLGGVTENADMNNINLAMKLEDEMHYIIPKKGEK”, the “soluble fraction (log2)” value was 0.28. For “HMGVGVTAPLAGNIFKIVKQPGDVVASGDVVLILEAMKMETEIRAAAGGTVKQVLVREGDAVDAGHTLMTL”, the “soluble fraction (log2)” value was -0.309. With “HMPNFDPSYILDFGDVIQLQLVGQKNQILEIPILRDGSVNLPDIGKIFLSGMSLEEATKIIKDTYSA” the “soluble fraction (log2)” value was -0.679. For “HMDNPNVMAQVKSLLASKGLSEQEVKERLKAKGLNIDAMSDAEIAQNRSVIEQTIAELEAEKKKAG”, the “soluble fraction (log2)” value was -0.128. For “HMTRIHEEVVNQVHDLVKEGRFKAGDQLPSERELAEIFKVSRTSVREALRALETQGLIISRTGMGNFIAD”, the “soluble fraction (log2)” value was -0.0448. With “HMIALKNLREEKRMTQAELSKDLEISPSAIGMYEQGRRVPDVSTLKKISAYFNVSIDYLLGNSTSKDI” the “soluble fraction (log2)” value was -0.018. For “HMAQVRSTVERRENGTYTVELNLNDDVDNVMRLQLMVATKEMAEDLAQRFQKNPEQVYSQLVTALYG”, the “soluble fraction (log2)” value was 0.0631. With “HMKKYDIKEAQEIAEINRIPGLVTTSHGRRVYFDPKIMQYVSEEQIVKKYGQKTVKMLDQWYVSNILNK” the “soluble fraction (log2)” value was -0.0388. In the case of “HMQSLAAKINGYIVAQRTSIAAIAKEIGYSRVTVSRYLAGKYDSDPTGIEAKLAAFLAGQTGEE”, the “soluble fraction (log2)” value is reported as -1.75. For “HMTGEDIKKVILREYAREKSLLSIFHELSKVNSNVTLEVIKDIITNIDKLPNDLLQYFKEESSFYQKNKN”, the “soluble fraction (log2)” value was -0.397. In the case of “HMEKDRDKRIRKRVLTALKRNDKKMTDKAFALLTSRIRDESILDQEVLKLIGYVGDRTTIDSKDINIVVAE”, the “soluble fraction (log2)” value is reported as 0.0525. For “HMPELSNNLDRDKVALKNFNESLKDGLTPAEAYANHLTNVSKAAQEAARQSNGLPVDIDKYHNSQLAASMA”, the “soluble fraction (log2)” value was 0.273. With “HMENLTLVIGNKLKNIRNSRNLSLDDVAELTGVSKAMLGQIERGKSNPTVSTLWKISTGLRVSFSSFIDE” the “soluble fraction (log2)” value was -2.2. With “HMAPSLSEYAYEEIKHAIERGVYPPGAKLITQEIADRLGISRTPVVAAVNRLTAEGYADAVPQHGIFVK” the “soluble fraction (log2)” value was 0.0573. With “HMNAESLIGDRAVVTVAIERNKRGRVDVTGQDWAATTRDGEEIKVGQEVLVVGISGVALIVEER” the “soluble fraction (log2)” value was -0.426. With “HMEEINTAPVFKNIIEIAEYAKTKFTTVEEIPKMIEFIETANSKLDNPHDEESVNELINALSTNIRKNV” the “soluble fraction (log2)” value was 0.193.
